Where no end group is shown, it is not given here.
Molecular target: T1, mCerulean-tagged GIPC (human, UniProt O14908 1-333)
T1 sequence (looked up): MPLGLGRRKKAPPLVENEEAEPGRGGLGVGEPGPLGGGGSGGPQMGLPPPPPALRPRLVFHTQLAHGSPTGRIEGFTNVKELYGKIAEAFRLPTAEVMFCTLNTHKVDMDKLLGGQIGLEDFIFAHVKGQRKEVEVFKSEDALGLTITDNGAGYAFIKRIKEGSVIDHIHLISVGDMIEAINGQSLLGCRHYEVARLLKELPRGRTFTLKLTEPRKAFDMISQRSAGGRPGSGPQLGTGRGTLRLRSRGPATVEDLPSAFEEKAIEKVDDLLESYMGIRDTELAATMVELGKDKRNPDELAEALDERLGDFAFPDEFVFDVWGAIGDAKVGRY
Assay: FRET or BRET

QLPERAFRALPSGSGPGEVPTSRGLSSGTLPGPGNEASRELESYC (domain or fragment, human, UniProt P48546 422-466, looked up, also: mCitrine-tagged) [mCitrine-tagged GIPR C-tail, wild-type]: binds.

Reference: doi:10.1101/2025.08.22.671816 (bioRxiv, 2025)
